Results: article PMC10914487, “Interaction of human dendritic cell receptor DEC205/CD205 with keratins” (The Journal of Biological Chemistry, 2024)
Where two headings read alike, the source gives them in different places.

T1: CysR∼CTLD3-GFP fragment of DEC205 (wild type) (human, UniProt O60449 28-627)
T1 construct: signal peptide in the construct; DEC205 (CD205, Ly75), human, CysR∼CTLD3 fragment, residues M1-S627; Used for flow cytometry; also called CysR-CTLD3 fragment; not shown: GFP, C-terminal, kept
T1 sequence (looked up): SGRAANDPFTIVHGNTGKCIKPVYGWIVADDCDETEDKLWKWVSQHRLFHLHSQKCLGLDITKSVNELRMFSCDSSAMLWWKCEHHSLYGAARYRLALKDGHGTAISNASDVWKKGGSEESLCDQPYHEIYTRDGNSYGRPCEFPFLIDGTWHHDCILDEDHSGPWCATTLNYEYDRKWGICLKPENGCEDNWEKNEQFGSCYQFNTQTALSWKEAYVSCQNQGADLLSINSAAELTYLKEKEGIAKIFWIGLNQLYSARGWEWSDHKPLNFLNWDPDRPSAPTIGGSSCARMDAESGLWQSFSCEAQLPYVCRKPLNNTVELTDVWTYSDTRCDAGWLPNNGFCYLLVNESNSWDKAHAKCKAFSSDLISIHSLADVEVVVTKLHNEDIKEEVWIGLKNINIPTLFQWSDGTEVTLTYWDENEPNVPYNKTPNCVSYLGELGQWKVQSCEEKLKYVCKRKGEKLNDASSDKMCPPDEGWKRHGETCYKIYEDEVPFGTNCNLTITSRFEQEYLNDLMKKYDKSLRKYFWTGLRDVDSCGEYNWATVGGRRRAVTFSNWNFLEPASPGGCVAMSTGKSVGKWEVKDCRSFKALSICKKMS

T2: CysR∼CTLD3-Fc of DEC205 (human, UniProt O60449 28-627)
T2 construct: signal peptide in the construct; DEC205 (CD205, Ly75), human, CysR∼CTLD3 fragment, residues M1-S627; Human Fc homodimeric fragment with 6xHis at its C-termini fused to the C-terminus of CysR∼CTLD3; Used for Western blot (overlay) assays and ELISA; also called CysR∼CTLD3 fragment; CysR-CTLD3 fragment; source: High-Five insect cells (baculovirus made in Sf9), from culture supernatant, purified …
T2 sequence (looked up): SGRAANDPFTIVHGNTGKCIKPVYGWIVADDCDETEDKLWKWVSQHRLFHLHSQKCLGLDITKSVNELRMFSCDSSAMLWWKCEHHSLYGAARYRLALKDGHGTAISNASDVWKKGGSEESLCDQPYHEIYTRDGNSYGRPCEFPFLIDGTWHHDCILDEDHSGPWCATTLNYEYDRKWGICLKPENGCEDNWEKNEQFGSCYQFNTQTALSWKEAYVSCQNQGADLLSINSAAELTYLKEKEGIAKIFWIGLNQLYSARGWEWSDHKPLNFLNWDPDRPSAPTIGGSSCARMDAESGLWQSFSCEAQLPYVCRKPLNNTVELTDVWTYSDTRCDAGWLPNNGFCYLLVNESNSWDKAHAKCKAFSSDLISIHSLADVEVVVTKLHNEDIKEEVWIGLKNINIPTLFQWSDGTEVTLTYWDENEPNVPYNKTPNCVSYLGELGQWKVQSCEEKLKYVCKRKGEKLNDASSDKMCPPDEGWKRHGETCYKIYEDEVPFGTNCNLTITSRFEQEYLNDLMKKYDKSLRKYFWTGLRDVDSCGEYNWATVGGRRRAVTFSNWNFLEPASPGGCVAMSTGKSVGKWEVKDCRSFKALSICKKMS

T3: Human keratin 1 tail region K1-T1 (residue E490-R644) (human, UniProt P04264 490-644)
T3 chain: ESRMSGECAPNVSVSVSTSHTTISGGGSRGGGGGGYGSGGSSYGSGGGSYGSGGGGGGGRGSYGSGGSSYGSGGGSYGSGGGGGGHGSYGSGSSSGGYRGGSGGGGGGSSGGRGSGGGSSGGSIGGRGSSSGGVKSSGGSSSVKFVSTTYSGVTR

T4: Human keratin 10 C-terminal tail fragment K10-T1 (residue G461-Y584) (human, UniProt P13645 461-584)
T4 chain: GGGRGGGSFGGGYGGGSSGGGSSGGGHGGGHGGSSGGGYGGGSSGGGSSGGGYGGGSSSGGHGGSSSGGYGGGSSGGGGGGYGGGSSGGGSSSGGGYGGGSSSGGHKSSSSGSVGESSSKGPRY

B1: CysR∼CTLD3-Fc of DEC205 (Fc fusion)
chain: SGRAANDPFTIVHGNTGKCIKPVYGWIVADDCDETEDKLWKWVSQHRLFHLHSQKCLGLDITKSVNELRMFSCDSSAMLWWKCEHHSLYGAARYRLALKDGHGTAISNASDVWKKGGSEESLCDQPYHEIYTRDGNSYGRPCEFPFLIDGTWHHDCILDEDHSGPWCATTLNYEYDRKWGICLKPENGCEDNWEKNEQFGSCYQFNTQTALSWKEAYVSCQNQGADLLSINSAAELTYLKEKEGIAKIFWIGLNQLYSARGWEWSDHKPLNFLNWDPDRPSAPTIGGSSCARMDAESGLWQSFSCEAQLPYVCRKPLNNTVELTDVWTYSDTRCDAGWLPNNGFCYLLVNESNSWDKAHAKCKAFSSDLISIHSLADVEVVVTKLHNEDIKEEVWIGLKNINIPTLFQWSDGTEVTLTYWDENEPNVPYNKTPNCVSYLGELGQWKVQSCEEKLKYVCKRKGEKLNDASSDKMCPPDEGWKRHGETCYKIYEDEVPFGTNCNLTITSRFEQEYLNDLMKKYDKSLRKYFWTGLRDVDSCGEYNWATVGGRRRAVTFSNWNFLEPASPGGCVAMSTGKSVGKWEVKDCRSFKALSICKKMS

What was measured:
CysR∼CTLD3-Fc of DEC205 [1] = target: B1; assay: ELISA; pH 6.0
[2] = target: T1, CysR∼CTLD3-GFP fragment of DEC205 (wild …); assay: flow cytometry on cells; inhibition assay: ActD-induced Jurkat cells in PBS pH 6.0 incubated with CysR∼CTLD3-GFP with or without keratin fragments (about 20 μg/ml); the pair meant is keratin fragment and CysR∼CTLD3-GFP; details: both partners purified
CysR∼CTLD3-Fc of DEC205 [3] = target: T2, CysR∼CTLD3-Fc of DEC205; assay: ELISA; keratin fragments coated (∼2 μg per well); CysR∼CTLD3-Fc serially diluted in PBS, 2 mg/ml BSA at preset pH (acidic pH), 2 h, 37 °C; detected with HRP anti-human IgG Fcγ antibody; details: both partners purified
CysR∼CTLD3-Fc of DEC205 [4] = target: T2, CysR∼CTLD3-Fc of DEC205; assay: far-Western, overlay or dot blot; keratin fragments resolved by SDS-PAGE and transferred to PVDF; membrane incubated with CysR∼CTLD3-Fc (10 μg/ml) in PBS, 5% milk, 0.1% Tween 20, pH 6.0 or pH 7.4, 2 h, room temperature; detected with HRP anti-human IgG Fcγ antibody; details: both partners purified
[5] = target: T3, Human keratin 1 tail region K1-T1 …; assay: ELISA; pH 6.0
[6] = target: T4, Human keratin 10 C-terminal tail …; assay: ELISA; pH 6.0
[7] = target: the molecule itself; assay: crystal structure; CysR∼CTLD3-His crystallised in 0.2 M sodium citrate, 20% PEG3350, pH 6.5-7.4, 18 °C; P1 crystal form with a homodimer in one asymmetric unit
CysR∼CTLD3-Fc of DEC205 [8] = target: B1; assay: ELISA; pH 6.0

Row | Binder | binding result [2] | binding result (CysR∼CTLD3-Fc of DEC205 [4]) | other results
1 | ISGGGSRGGG (keratin 1 (K1), human, tail, residues I512-G521; Expressed and purified for ELISA and flow cytometry; source: E. coli BL21(DE3), pET28a, purified (Ni-NTA)) [K1-T2 (I512-G521: ISGGGSRGGG), SUMO fusion] | binds |  | Kd (CysR∼CTLD3-Fc of DEC205 [1]): 29.1 nM; binding result (CysR∼CTLD3-Fc of DEC205 [3]): binds
2 | SSGGGSSGGGHGGGH (peptide, UniProt P13645 477-491, looked up, keratin 10 (K10), human, tail, residues S477-H491; source: E. coli BL21(DE3), pET28a, purified (Ni-NTA); not shown: SUMO, N-terminal, kept) [K10-T7 (residue S477-H491), SUMO fusion] |  | binds | 
3 | K10-T2 (residue G461-G520), SUMO fusion (domain or fragment, human, UniProt P13645 461-520, looked up, keratin 10 (K10), human, tail, residues G461-G520; source: E. coli BL21(DE3), pET28a, purified (Ni-NTA); not shown: SUMO, N-terminal, kept) GGGRGGGSFGGGYGGGSSGGGSSGGGHGGGHGGSSGGGYGGGSSGGGSSGGGYGGGSSSG |  | binds | 
4 | GSGGGSYGSG (Expressed and purified for ELISA and flow cytometry; source: E. coli BL21(DE3), pET28a, purified (Ni-NTA)) [K1-T3 (G532-G541 and G560-G569: GSGGGSYGSG), SUMO fusion] | binds |  | Kd (CysR∼CTLD3-Fc of DEC205 [1]): 28.7 nM; binding result (CysR∼CTLD3-Fc of DEC205 [3]): binds
5 | GGGRGGGSFGGGYGGGSSGGGSSGGGHGGGH (peptide, UniProt P13645 461-491, looked up, keratin 10 (K10), human, tail, residues G461-H491; source: E. coli BL21(DE3), pET28a, purified (Ni-NTA); not shown: SUMO, N-terminal, kept) [K10-T4 (residue G461-H491), SUMO fusion] |  | binds | 
6 | GSSGGGYGGG (keratin 10 (K10), human, tail, residues G507-G516; source: E. coli BL21(DE3), pET28a, purified (Ni-NTA); not shown: SUMO, N-terminal, kept) [K10-T11 (residue G507-G516), SUMO fusion] |  | binds | 
7 | Human keratin 10 C-terminal tail fragment K10-T1 (residue G461-Y584) (domain or fragment, UniProt P13645 461-584, looked up, keratin 10 (K10), human, C-terminal tail, residues G461-Y584; Expressed without a SUMO tag; source: E. coli BL21(DE3), pET28a, purified (Ni-NTA)) GGGRGGGSFGGGYGGGSSGGGSSGGGHGGGHGGSSGGGYGGGSSGGGSSGGGYGGGSSSGGHGGSSSGGYGGGSSGGGGGGYGGGSSGGGSSSGGGYGGGSSSGGHKSSSSGSVGESSSKGPRY | binds |  | binding result (CysR∼CTLD3-Fc of DEC205 [3]): binds
8 | GGSSGGGYGGGSSGG (peptide, UniProt P13645 492-506, looked up, keratin 10 (K10), human, tail, residues G492-G506; source: E. coli BL21(DE3), pET28a, purified (Ni-NTA); not shown: SUMO, N-terminal, kept) [K10-T8 (residue G492-G506), SUMO fusion] |  | binds | 
9 | GGGRGGGSFGGGYGGG (peptide, UniProt P13645 461-476, looked up, keratin 10 (K10), human, tail, residues G461-G476; source: E. coli BL21(DE3), pET28a, purified (Ni-NTA); not shown: SUMO, N-terminal, kept) [K10-T6 (residue G461-G476), SUMO fusion] |  | binds | 
10 | GSSGGGYGGGSSSG (peptide, UniProt P13645 507-520, looked up, keratin 10 (K10), human, tail, residues G507-G520; source: E. coli BL21(DE3), pET28a, purified (Ni-NTA); not shown: SUMO, N-terminal, kept) [K10-T9 (residue G507-G520), SUMO fusion] |  | binds | 
11 | B1 |  |  | Kd [5]: 31.2 nM; Kd [6]: 11.5 nM
12 | CysR∼CTLD3 fragment of human DEC205 (residues M1-S627) with a C-terminal 6xHis-tag (domain or fragment, UniProt O60449 28-627, looked up, signal peptide in the construct; DEC205 (CD205, Ly75), human, CysR∼CTLD3 fragment, residues M1-S627; Construct used for crystallisation; a homodimer stands in the asymmetric unit of the P1 crystal form only; also called N-terminal fragment of DEC205; CD205; source: High-Five insect cells (baculovirus made in Sf9), from culture supernatant, purified (Ni-NTA, gel filtration)) SGRAANDPFTIVHGNTGKCIKPVYGWIVADDCDETEDKLWKWVSQHRLFHLHSQKCLGLDITKSVNELRMFSCDSSAMLWWKCEHHSLYGAARYRLALKDGHGTAISNASDVWKKGGSEESLCDQPYHEIYTRDGNSYGRPCEFPFLIDGTWHHDCILDEDHSGPWCATTLNYEYDRKWGICLKPENGCEDNWEKNEQFGSCYQFNTQTALSWKEAYVSCQNQGADLLSINSAAELTYLKEKEGIAKIFWIGLNQLYSARGWEWSDHKPLNFLNWDPDRPSAPTIGGSSCARMDAESGLWQSFSCEAQLPYVCRKPLNNTVELTDVWTYSDTRCDAGWLPNNGFCYLLVNESNSWDKAHAKCKAFSSDLISIHSLADVEVVVTKLHNEDIKEEVWIGLKNINIPTLFQWSDGTEVTLTYWDENEPNVPYNKTPNCVSYLGELGQWKVQSCEEKLKYVCKRKGEKLNDASSDKMCPPDEGWKRHGETCYKIYEDEVPFGTNCNLTITSRFEQEYLNDLMKKYDKSLRKYFWTGLRDVDSCGEYNWATVGGRRRAVTFSNWNFLEPASPGGCVAMSTGKSVGKWEVKDCRSFKALSICKKMS |  |  | binding result [7]: binds
13 | GSSGGGHGGG (keratin 10 (K10), human, tail, residues G481-G490; Form used in the Western blot (overlay) assay and, with SUMO as control, in ELISA; source: E. coli BL21(DE3), pET28a, purified (Ni-NTA); not shown: SUMO, N-terminal, kept) [K10-T10 (residue G481-G490), SUMO fusion] |  |  | binding result (CysR∼CTLD3-Fc of DEC205 [3]): binds; Kd (CysR∼CTLD3-Fc of DEC205 [8]): 10.9 nM
14 | GGSSGGGYGGGSSGGGSSGGGYGGGSSSG (peptide, UniProt P13645 492-520, looked up, keratin 10 (K10), human, tail, residues G492-G520; source: E. coli BL21(DE3), pET28a, purified (Ni-NTA); not shown: SUMO, N-terminal, kept) [K10-T5 (residue G492-G520), SUMO fusion] |  | binds | 
15 | GSSGGGHGGG (keratin 10 (K10), human, tail, residues G481-G490; source: synthetic peptide) [chemically synthesized peptide K10-T10] | binds |  | 
16 | GSSGGGYGGG (keratin 10 (K10), human, tail, residues G507-G516; source: synthetic peptide) [chemically synthesized peptide K10-T11] | binds |  | 
